The target of assay [1] is E. coli SSB-mixed (E. coli) (UniProt P0AGE0).
The target in the next assay is E. coli SSB113 (E. coli) (UniProt P0AGE0).
Assay [2] addresses E. coli SSBΔC1 (SSB lacking its C-terminal-most residue) (E. coli) (UniProt P0AGE0).

In turn, “E. coli RecQ (wild type, full-length, hexahistidine-tagged) (from UniProt P15043 1-609) (enzyme)” came in with a Fold stimulation of RecQ helicase activity by SSB-mixed in assay [1] of 0.7 fold. In the assay with E. coli SSB113 (E. coli), this substance registered a Fold stimulation of RecQ helicase activity by SSB113 of 0.9 fold. This substance gave a Fold stimulation of RecQ helicase activity by SSBΔC1 in assay [2] of 0.6 fold.

(Values after publication PMC2735845.)
